In the supplement of paper PMC10567573:

B1: CD207 (parent)
chain: MTVEKEAPDAHFTVDKQNISLWPR
B2: TRIB1 (parent)
chain: SYVRSRKRLREEEAARLFKQIVSA

Variants of: B1
Experiment: protein stability index of a GFP-peptide fusion (GPS, HEK-293T) (PSI 1-6); higher = more stable
Settings: c terminus: a fixed tail appended
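Also: lentivirally expressed fusions sorted by FACS into six bins by GFP to DsRed ratio, PSI derived from sequencing read proportions per bin multiplied by bin number.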

Protein stability index: each site, then its substitutions
N18: H 3.46, R 3.14, W 2.05, C 2.44, L 2.88, T 3.62, Y 2.97, M 3.5, P 3.39, F 3, D 3.21, G 3, S 3.56, K 3.4, I 1.95, A 4.24, Q 2.86, E 3.34, V 2.29
S20: W 2.96, M 2.81, C 3.39, D 4.04, T 3.43, V 2.71, E 3.33, Q 3.1, G 3.29, K 3.55, R 3.3, H 3.2, Y 2.69, P 3.3, N 3.07, A 3.3, L 2.48, I 2.66, F 3.04
T13: K 3.61, G 3.04, I 3.49, N 3.63, A 3.53, Q 3.43, L 4.19, H 3.03, M 3.12, P 3.19, S 3.8, D 3.96, Y 3.59, C 3.2, V 3.42, W 2.54, F 3.13, R 2.66
L21: N 3.43, V 3.09, Q 3.85, C 3.64, R 3.7, M 3.81, T 3.01, P 4.11, H 4.06, D 4.22, W 3.12, F 3.25, I 3.79, Y 3.39, K 3.72, S 3.53
P8: S 3.65, N 3.48, R 3.71, L 2.65, M 3.17, W 1.93, T 3.17, F 1.98, Y 2.6, C 2.96, D 3.67, V 2.86, I 3.22, G 3.02, H 4.79, E 4.39, Q 3.24, K 3.54
V14: R 3.05, P 3.79, G 2.35, S 3.81, L 2.93, F 2.42, H 3.13, D 4.11, E 3.79, I 3.45, C 3.27, N 3.36, Y 2.48, A 3.45, K 3.41, Q 3.85, T 3.82, M 3.18, W 2.65
F12: E 4.38, S 4.1, G 4.03, H 4.02, N 3.13, P 4.66, K 4.05, T 4.09, C 3.72, L 3.72, R 4.04, M 4.14, V 3.74, A 3.78, Y 3.16, D 4.92, I 3.96, W 3.35, Q 4.5
I19: H 4.29, L 3.35, E 4.47, V 3.98, M 3.67, T 3.79, K 4.35, Q 3.84, S 3.45, A 4.25, R 3.99, P 4, N 4.39, F 4.08, D 4.22, G 3.13, C 3.76, Y 3.41
A10: L 2.91, Q 3.46, E 4.07, K 3.09, P 3.01, M 2.31, R 2.48, N 3.23, G 3.75, W 2.4, S 3.5, V 2.91, H 3.76, F 2.84, T 3.83, I 2.21, D 3.56, C 3.77, Y 3.3
H11: Q 2.95, L 3, R 2.79, V 3.55, N 3.68, G 3.06, S 3.58, D 3.58, T 3.8, A 3.38, K 3.4, Y 2.28, I 2.89, C 3.01, M 2.88, E 4.08, W 1.97, P 3.55
Q17: C 2.8, W 1.56, T 3.14, G 3.38, H 3.05, S 2.31, K 3.36, I 2.48, V 2.39, A 3.66, Y 1.94, R 2.76, E 3.26, N 2.97, L 2.64, D 3.73, F 1.89, P 3.21, M 2.15
W22: H 4.21, Q 4.29, K 4.99, M 4.19, D 4.85, V 4.32, R 4.1, P 4.64, S 4.69, I 4.73, N 4.4, C 4.08, L 4.42, F 3.91, A 4.63, E 5.08, T 4.34, G 4.35, Y 3.83
D9: L 2.38, R 3.13, F 2.37, H 2.89, N 3.27, C 3.01, K 2.44, E 3.15, T 2.94, Q 3.23, M 2.56, G 3.05, I 2.19, A 2.79, P 2.95, S 3.25, W 2.91, Y 2.42
D15: C 3.35, Y 1.98, G 2.92, A 3.35, K 2.81, Q 3.17, R 3.06, M 2.67, N 2.54, P 2.74, F 2.06, I 2.31, H 2.48, T 2.74, S 3.61, E 3.51
R24: Y 2.83, H 3.69, G 3.72, I 2.9, S 3.57, K 3.87, A 3.98, C 3.16, L 2.95, D 4.53, P 3.28, N 4.12, Q 3.97, F 3.42, T 3.63, E 4.83, M 2.24, V 3.07, W 2.78
K16: Y 2.83, V 2.93, C 3.76, E 4.13, L 2.62, F 2.95, S 3.79, R 3.26, D 3.35, G 3.8, M 2.83, P 3.26, A 3.52, W 2, Q 3.01, N 3.49, H 3.53, T 3.18, I 2.39
P23: A 3.39, I 2.91, Y 2.62, M 2.84, D 4.51, Q 3.14, F 2.71, R 3.43, L 2.62, C 2.69, N 3.82, S 2.64, K 3.69, T 2.93, W 2.52, E 3.84, G 3, H 2.9

Variants of: B2
Experiment: as above
Settings: c terminus: a fixed tail appended

Protein stability index: each site, then its substitutions
Y2: I 1.78, A 2.5, F 1.54, K 2.14, N 2.83, R 2.17, G 1.83, M 2.91, Q 2.48, H 2.58, S 1.9
S1: Q 1.58, F 1.45, K 2.98, N 2.2, A 2.07, Y 1.41, V 1.65, R 1.95, P 2.1, D 1.88, E 1.5, M 1.82
